From article PMC6363796, “Identification and characterization of a direct activator of a gene transfer agent” come the findings set out here.

One data set addresses T1, GafA (Rhodobacter capsulatus, UniProt D5AUH1 1-382).
T1 sequence: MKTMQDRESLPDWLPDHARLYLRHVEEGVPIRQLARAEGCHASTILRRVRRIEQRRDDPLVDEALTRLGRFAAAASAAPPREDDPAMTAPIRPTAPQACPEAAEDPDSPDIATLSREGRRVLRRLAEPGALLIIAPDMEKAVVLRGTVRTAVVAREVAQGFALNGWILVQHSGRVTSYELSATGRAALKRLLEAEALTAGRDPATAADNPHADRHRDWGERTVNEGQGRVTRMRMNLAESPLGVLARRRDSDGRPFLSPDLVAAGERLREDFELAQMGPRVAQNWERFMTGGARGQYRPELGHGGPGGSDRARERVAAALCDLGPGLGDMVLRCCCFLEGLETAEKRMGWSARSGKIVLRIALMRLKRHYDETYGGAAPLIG
Kind of data set: EMSA; 2 uM GafA; 80 nM Cy5-dsDNA, 25 mM HEPES pH 8.0, 50 mM K-glutamate, 50 mM MgSO4, 1 mM DTT, 0.1 mM EDTA, 0.05% Triton X-100, 1 ug poly dI:dC, 4% glycerol, 30 C 15 min; GtaR: 10 mM HEPES pH 8, 40 mM NaCl, 37 C 30 min; PCR products: pGTA 2 ng/ul, unlabelled 100 ng. As to conditions: protein: recombinant; tags: His6 (pCMF176) or His6-MBP (pCMF193); label: 5'-Cy5 (one strand); blunt. For orientation: In EMSA bound probe runs differently from free probe, usually more slowly.

In a further data set the target is T2, CtrA (Rhodobacter capsulatus, UniProt D5ATW9 1-237).
T2 sequence: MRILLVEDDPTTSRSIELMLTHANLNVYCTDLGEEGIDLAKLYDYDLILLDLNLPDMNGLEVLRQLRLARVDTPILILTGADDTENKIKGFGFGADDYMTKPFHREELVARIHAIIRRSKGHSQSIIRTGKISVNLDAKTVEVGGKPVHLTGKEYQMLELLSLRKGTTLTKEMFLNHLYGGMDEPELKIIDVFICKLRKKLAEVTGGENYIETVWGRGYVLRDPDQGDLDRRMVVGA
The data set can be described thus: EMSA; 80 nM Cy5-dsDNA, 25 mM HEPES pH 8.0, 50 mM K-glutamate, 50 mM MgSO4, 1 mM DTT, 0.1 mM EDTA, 0.05% Triton X-100, 1 ug poly dI:dC, 4% glycerol, 30 C 15 min; GtaR: 10 mM HEPES pH 8, 40 mM NaCl, 37 C 30 min; PCR products: pGTA 2 ng/ul, unlabelled 100 ng. As to conditions: protein: recombinant; tags: His6 (pEHisTEV, N-terminal); chain copies: 2; label: 5'-Cy5 (one strand); blunt.

The next data set has as its target T3, GtaR (Rhodobacter capsulatus, UniProt D5AM23 1-203).
T3 sequence: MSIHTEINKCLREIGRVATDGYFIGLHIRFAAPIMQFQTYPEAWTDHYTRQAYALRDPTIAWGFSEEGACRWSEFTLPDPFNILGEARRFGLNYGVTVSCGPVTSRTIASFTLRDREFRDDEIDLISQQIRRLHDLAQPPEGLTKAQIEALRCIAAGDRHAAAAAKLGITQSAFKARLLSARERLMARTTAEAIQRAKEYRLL
Kind of data set: EMSA; binding detected at 375 nM protein or above; GtaR buffer; 80 nM Cy5-dsDNA, 25 mM HEPES pH 8.0, 50 mM K-glutamate, 50 mM MgSO4, 1 mM DTT, 0.1 mM EDTA, 0.05% Triton X-100, 1 ug poly dI:dC, 4% glycerol, 30 C 15 min; GtaR: 10 mM HEPES pH 8, 40 mM NaCl, 37 C 30 min; PCR products: pGTA 2 ng/ul, unlabelled 100 ng. As to conditions: protein: recombinant; tags: His6 (pEHisTEV, N-terminal); chain copies: 2; label: 5'-Cy5 (one strand); blunt.

B1: pGTA3 (dsDNA)
DNA 1: GCGCCGCGGGTGACCGTGTGCGCTTTTTTCATTTCGCTCGTGCGGACAGG
DNA 2: CCTGTCCGCACGAGCGAAATGAAAAAAGCGCACACGGTCACCCGCGGCGC
Turning to B1, in the data set with GafA, the binding result is “no binding”.

B2: pGTA1 (dsDNA)
DNA 1: TCCGGGGTTTTTTCTTTTCAGCGGGTGCAACCCTGAATATAGCACTTGAC
DNA 2: GTCAAGTGCTATATTCAGGGTTGCACCCGCTGAAAAGAAAAAACCCCGGA
Take B2: the binding result with GafA is given as “no binding”.

B3: pGafA_50 (gafA promoter) (dsDNA)
DNA 1: TCGAGATCGCCCCATTTCTTAACCAAGGGGTAACCAAAGCAACCCACGGT
DNA 2: ACCGTGGGTTGCTTTGGTTACCCCTTGGTTAAGAAATGGGGCGATCTCGA
As to B3, in the data set with CtrA, the Kd came to 54.9 nM. Further, the binding result with GtaR is on record as “binds”.

B4: pGTA5 (dsDNA)
DNA 1: GGCATGCTAGGAGAGGTGGGCAAGCGCCGCGGGTGACCGTGTGCGCTTTT
DNA 2: AAAAGCGCACACGGTCACCCGCGGCGCTTGCCCACCTCTCCTAGCATGCC
As to B4, the binding result in the data set with GafA was “no binding”.

B5: pGTA4 (dsDNA)
DNA 1: TTCATTTCGCTCGTGCGGACAGGCATGAGAGGCGGGTCACGCAAGACATG
DNA 2: CATGTCTTGCGTGACCCGCCTCTCATGCCTGTCCGCACGAGCGAAATGAA
Take B5: the binding result in the data set with GafA was “no binding”.

For orientation: Kd means the constant that tells how readily two partners part at equilibrium.
